B1: IL22: human recombinant IL22 (10 ng/mL) on human colonoids; mouse recombinant IL22 on mouse colonoids (protein, UniProt Q9GZX6 34-179, looked up)
Interleukin-22: APISSHCRLDKSNFQQPYITNRTFMLAKEASLADNNTDVRLIGEKLFHGVSMSERCYLMKQVLNFTLEEVLFPQSDRFQPYMQEVVPFLARLSNRLSTCHIEGDDLHIQRNVQKLKDTVKKLGESGEIKAIGELDLLFMSLRNACI

What was measured:
TRUC mice = test: TRUC mouse chronic colitis model, in vivo treatments; conditions: TRUC Il22−/− mice
Description: In vivo treatments: Neutralizing anti-IL-22 mAb (clone IL22-01) and recombinant IL-22 (rIL-22) were developed and provided by Pfizer. […] of IL22-01 (per mouse) were administered i.p. every 3 to 4 days. […] of rIL-22 (per mouse) were administered i.p. at days 0, 4, 8 and 12, while mice were culled at day 14. Anti-CXCR2 (clone 242216, R&D Systems) was administered i.p. at a dose of […] per mouse at days 0, 3, 7, 10 and 14, while mice were culled at day 15.
Isolation of colonic LP leukocytes (cLPMCs): Mice were euthanized by either cervical dislocation or by a rising concentration of carbon dioxide gas, and then dissected in a laminar flow cabinet under aseptic conditions. Colons were opened longitudinally, cleaned thoroughly with ice-cold PBS and cut into 1-2 mm pieces and washed with 10 ml 5 mM EDTA, 1 mM Hepes in HBSS (Gibco; Gaithersburg, Md.) in a shaking water bath (300 rpm) at 37° C. for 20 min. Tissue was then vortexed vigorously for 10 seconds and passed through a […] cell strainer and collected in Ctubes (Miltenyi; Bergisch Gladbach, Germany) in complete RPMI (Gibco) containing 10% fetal calf serum, 0.25 mg/ml Collagenase D (Roche; Basel, Switzerland), 1.5 mg/ml Dispase II (Roche) and […] DNase (Roche) and put in a shaking water bath (300 rpm) at 37° C. for 40 minutes. Before and after the 40 minute incubation C-tubes were vigorously shaken for 30 seconds. Solutions were then passed through […] cell strainers and washed with ice-cold PBS. […] Cells were resuspended in 1 ml PBS, counted, and immediately used for further experiments.
Gene expression analysis: Whole tissue colonic fragments or sorted cells were lysed in 1 ml TRIsure (Bioline) and stored at −80° C. pending further processing. […] Concentration of RNA in each sample was measured using NanoDrop. […] Quantitative PCR was performed using QuantiTect primers (Qiagen) and Quantitect SybrGreen MasterMix (Qiagen) on a LightCycler 480 (Roche). Samples were analyzed in triplicates and relative expression of mRNAs was determined after normalization against the housekeeping gene Beta-2-Microglobulin (B2M). […]

mouse colonic organoids = test: IL22 treatment of mouse colonic organoids, chemokine expression; assay type: cell-based
Description: Mouse colonoids were cultured in the same medium as above but without gastrin SB202190, Nicotinamide, A83-01 and with the addition of 3 μM CHIR99021 (Cambridge Biosciences; Cambridge, United Kingdom). To differentiate them, Wnt3a was withdrawn for 3 days. During the last 24 hours in differentiation medium, mouse colonoids were treated with mouse recombinant IL22 (10 ng/mL) and IL17A (50 ng/mL).
Next, whether IL22 mediated regulation of neutrophil-active chemokine expression was functionally important in colitis was investigated. First, it was evaluated whether IL22 mediated regulation of human colonic epithelial function was conserved across species. […] In the CC family of chemokines, induction of Ccl7 and weaker induction of Ccl2 by IL22, with little or no impact on other CC family members, was observed. These findings were validated using real time PCR, which confirmed time and dose dependent induction of CXC-family chemokine transcripts. As observed in human colonoids, IL22 induced expression of Cxcl1 and Cxcl5, and was synergistically augmented by IL17A. These observations were confirmed at the protein level by measuring chemokine production in supernatants of murine colonic organoids cultured with recombinant mouse cytokines.

human colonoids = test: Cytokine treatment of human colonoids, RNA-seq; assay type: cell-based
Description: All patients provided informed consent (NRES/IRAS id:15/LO/1998). Subsequent establishment of human colonoids was performed as previously described by Sato et al (48). The crypts were cultured in growth medium containing advanced Dulbecco's modified Eagle's medium/F12, penicillin/streptomycin (100 units/mL), 10 mM HEPES, 2 mM Glutamax, supplements N2 (1×) and B27 (1×), 50 ng/mL mouse epidermal growth factor (all from Life Technologies; Carlsbad, Calif.), 1 mM N-acetylcysteine (Sigma-Aldrich; St. Louis, Mo.), 50% v/v Wnt3a conditioned medium, 10% v/v R-spondin-1 conditioned medium, 100 ng/mL murine recombinant noggin protein (Peprotech; Rocky Hill, N.J.), 10 nM gastrin (Sigma-Aldrich), 500 nM A83-01 (Bio-techne; Minneapolis, Minn.), 10 μM SB202190 (Sigma-Aldrich) and 10 mM Nicotinamide (Sigma-Aldrich). 10 μM Y-27632 (Sigma-Aldrich) was added to the culture medium for the initial 3 days. Medium was changed every 2 days. […] During the last 24 hours in differentiation medium, human colonoids were treated with human recombinant IL22 (10 ng/mL), IL17A (50 ng/mL), TNFα (10 ng/mL), IFNγ (20 ng/mL), IL13 (10 ng/mL) and IL22 (10 ng/mL)/IL17A (50 ng/mL) combination.
RNA extraction: Colonoids and LPMC were treated in a similar fashion. Cells were lysed and RNA was extracted using the RNAeasy kit (Qiagen; Hilden, Germany). This step was optimized balancing the effectiveness of elimination of DNA quantified (Qubit dsDNA HS assay kit) versus the loss of quantity of RNA (Qubit RNA BR assay kit). Optimal DNAse I concentration was determined to be ×5 the standard concentration. 500 ng of cDNA was then created using Revertaid cDNA synthesis kit (ThermoFisher) and diluted to a concentration of 6.25 ng/μl. Harvested colonoids were put in Qiazol and then RNA was extracted with the RNAeasy kit (Qiagen) as per manufacturer's guidelines. cDNA was created using the Revertaid cDNA synthesis kit (ThermoFisher).
Library preparation and sequencing: A total amount of 3 μg RNA per sample was used as input material for the RNA sample preparations. Sequencing libraries were generated using NEBNextR Ultra™ RNA Library Prep Kit for IlluminaR (NEB, Ipswich, Mass.) following manufacturer's recommendations and index codes were added to attribute sequences to each sample. Briefly, mRNA was purified from total RNA using poly-T oligo-attached magnetic beads. Fragmentation was carried out using divalent cations under elevated temperature in NEBNext First Strand Synthesis Reaction Buffer (5×). First strand cDNA was synthesized using random hexamer primer and M-MuLV Reverse Transcriptase (RNase H-). Second strand cDNA synthesis was subsequently performed using DNA Polymerase I and RNase H. Remaining overhangs were converted into blunt ends via exonuclease/polymerase activities. After adenylation of 3′ ends of DNA fragments, NEBNext Adaptor with hairpin loop structure were ligated to prepare for hybridization. In order to select cDNA fragments of preferentially 150˜200 bp in length, the library fragments were purified with AMPure XP system (Beckman Coulter, Brea, Calif.). Then 3 μl USER Enzyme (NEB) was used with size-selected, adaptor-ligated cDNA at 37° C. for 15 minutes followed by 5 minutes at 95° C. before PCR. Then PCR was performed with Phusion High-Fidelity DNA polymerase, Universal PCR primers and Index (X) Primer. At last, PCR products were purified (AMPure XP system) and library quality was assessed on the Agilent Bioanalyzer 2100 system. The clustering of the index-coded samples was performed on a cBot Cluster Generation System using HiSeq PE Cluster Kit cBot-HS (Illumina; San Diego, Calif.) according to the manufacturer's instructions. After cluster generation, the paired-end libraries were sequenced on an Illumina HiSeq platform. […]

Row | Molecule | Cxcl1 and Cxcl5 expression in the colon (TRUC mice) | disease activity (colitis) (TRUC mice) | neutrophil recruitment in the colon (TRUC mice) | regulation of chemokine expression (mouse colonic organoids) | downregulated transcripts (human colonoids; FDR<0.01) | upregulated transcripts (human colonoids; FDR<0.01) | differentially expressed transcripts (human colonoids; IL22 10 ng/mL, 24 hours, FDR<0.01) [transcripts] | regulation of chemokine expression (human colonoids; human colonoids, 24 hours) | transcripts uniquely regulated by IL22 (human colonoids; of the 1251 IL22-regulated transcripts)
1 | rIL22: recombinant IL-22 developed and provided by Pfizer, given i.p. to mice | reinstated | restored colitis | restored excessive neutrophil recruitment |  |  |  |  |  | 
2 | B1 |  |  |  | selectively induced expression of the neutrophil-active chemokines Cxcl1, Cxcl3 and Cxcl5 | 672 | 579 | 1251 | preferentially upregulated the neutrophil-active CXC family chemokines CXCL1, CXCL2, CXCL3, CXCL4, CXCL5, CXCL6 and CXCL8 | 322

From patent publication US20220291238A1, “Methods for Predicting Treatment Response in Ulcerative Colitis” (Janssen Biotech, Inc., priority 2021, published 2022)
